± gives the half width of the 95% confidence interval.
What was measured:
[1] = folding stability dG unfold from trypsin proteolysis; higher = more stable
How it was run: (§1)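 Sequencing followed digestion of designed mini-proteins with trypsin and chymotrypsin, each at 11 concentrations in threefold dilutions together with a no-protease condition. The mini-proteins were under 80 residues, had no cysteine, sat in a PA-tagged cDNA display construct, and were kept only if AlphaFold2 dimer inter-PAE was above 15. From the counts, Bayesian fitting gave K50, and unfolding free energy was derived against a sequence-predicted unfolded-state K50 and a shared folded-state K50, per protease or combined.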

[2] = folding stability dG unfold from chymotrypsin proteolysis; higher = more stable
How it was run: as §1

[3] = folding stability dG unfold (combined trypsin and chymotrypsin); higher = more stable
How it was run: as §1

SAGGKKTVKIEIVLPKEELEELLKKLLEEAKKKGLKVEVKVELKEVEVEVNGKKKKVLVLKVEIKVEPSAGG [r13_974_TrROS_Hall]
folding stability dG unfold [1]: 3.17 ± 0.12 kcal/mol
folding stability dG unfold [2]: 3.76 ± 0.14 kcal/mol
folding stability dG unfold [3]: 3.55 ± 0.19 kcal/mol

SAGGKKTYKVRIEIKVTDPNGKKRTIEIELEVPESEEEAEKLAKELAEKLKEKGYKVEIVKIEVEPLSAGGS [r16_525_TrROS_Hall]
folding stability dG unfold [1]: 3.98 ± 0.2 kcal/mol
folding stability dG unfold [2]: 4.08 ± 0.064 kcal/mol
folding stability dG unfold [3]: 4.03 ± 0.12 kcal/mol

SAGGKKYKVIKEIEITLENGKKIKIKLIEYNEKTNEYILEITYPDGKKITITVPKGMSIEEALKKLLSSAGG [r13_470_TrROS_Hall]
folding stability dG unfold [1]: 2.37 ± 0.16 kcal/mol
folding stability dG unfold [2]: 2.52 ± 0.051 kcal/mol
folding stability dG unfold [3]: 2.41 ± 0.12 kcal/mol

SAGGKKYVLIKVKVRVEKEVNGEKKEVELELEILVPVDEETGKTPEEKAKELAKKLPPEVTEVKIEPVSAGG [r13_335_TrROS_Hall]
folding stability dG unfold [1]: 1.63 ± 0.15 kcal/mol
folding stability dG unfold [2]: 2.86 ± 0.061 kcal/mol
folding stability dG unfold [3]: 2.21 ± 0.31 kcal/mol

SAGGKLKIKIGDKEYTVESVEIIEERPLPGGGPVYLIRLKFKDGPALIEIPPNIPSSISNNGTLVAGSAGGS [r16_638_TrMRF]
folding stability dG unfold [1]: 1.36 ± 0.04 kcal/mol
folding stability dG unfold [2]: 1.95 ± 0.058 kcal/mol
folding stability dG unfold [3]: 1.75 ± 0.095 kcal/mol

SAGGKLPLPPGTEVEFLFRSPLDPRRLYLVRVRFEPVPPDRLRLRPRVFNPETGEEVEFEFEVPLDEGSAGG [r13_268_TrMRF]
folding stability dG unfold [1]: 2.46 ± 0.041 kcal/mol
folding stability dG unfold [2]: 3.234 ± 0.025 kcal/mol
folding stability dG unfold [3]: 3 ± 0.052 kcal/mol

SAGGKLQLLLRSPDGNVEVALSFEKLPDGKVKVTATVRNKKTGRTYRLEVTFDLKTKKIEIKLEELPSAGGS [r16_684_TrROS_Hall]
folding stability dG unfold [1]: 4.78 ± 0.22 kcal/mol
folding stability dG unfold [2]: 6.24 ± 0.14 kcal/mol
folding stability dG unfold [3]: > 6 kcal/mol

SAGGKMKTVKVTITDKDGRKIEIVDVTVKDNKVYVVVKDKKTKKTIVLEFDTKEEAEEAIKKLLEAKSAGGS [r16_736_TrROS_Hall]
folding stability dG unfold [1]: 0.976 ± 0.071 kcal/mol
folding stability dG unfold [2]: 2.52 ± 0.066 kcal/mol
folding stability dG unfold [3]: 2.18 ± 0.34 kcal/mol

SAGGKMLVKIKIKVTIYDKNGKPVKEVELELVFPSLEDLLNALKSLSPEKIKKVEIVSIEEIDEEDLSAGGS [r16_677_TrROS_Hall]
folding stability dG unfold [1]: 3.5 ± 0.26 kcal/mol
folding stability dG unfold [2]: 4.06 ± 0.32 kcal/mol
folding stability dG unfold [3]: 3.73 ± 0.21 kcal/mol

SAGGKMSLEDIKEVKITKISEEELKKNGTIKIEIYNKNGKLIKTIEIKIKPVKVKDKDGKEKTLEELKSAGG [r13_864_TrROS_Hall]
folding stability dG unfold [1]: 0.897 ± 0.042 kcal/mol
folding stability dG unfold [2]: 1.49 ± 0.031 kcal/mol
folding stability dG unfold [3]: 1.29 ± 0.11 kcal/mol

SAGGKMVKIEITLSPEEIEKIKEKLEEETGLEVEIKVEKNENGEVKLIITFKSEEAAKKALEKLGIESAGGS [r16_172_TrROS_Hall]
folding stability dG unfold [1]: 2.63 ± 0.16 kcal/mol
folding stability dG unfold [2]: 3.7 ± 0.15 kcal/mol
folding stability dG unfold [3]: 3.42 ± 0.14 kcal/mol

SAGGKPGKWRKVEIWLPPDMPDIIEEIAKNWPNVNVDTERHPENGWYPVTGYFPDPNGKPVAKIHIWSAGGS [r8_267_TrROS]
folding stability dG unfold [1]: 0.185 ± 0.064 kcal/mol
folding stability dG unfold [2]: 0.933 ± 0.17 kcal/mol
folding stability dG unfold [3]: 0.65 ± 0.2 kcal/mol

SAGGKPKEIVIEVELEVVEVNGEKYLVLKAKIIDKETNEVYEVTAVFNLKTGKLVGIEVKKLTVEELKSAGG [r13_772_TrROS_Hall]
folding stability dG unfold [1]: 3.16 ± 0.25 kcal/mol
folding stability dG unfold [2]: 4.9 ± 0.23 kcal/mol
folding stability dG unfold [3]: 4.66 ± 0.37 kcal/mol

SAGGKPKVEIKIEEIPVDGELYLVIEIKVEEKNATLTLTLPNGEEITMEFDEETGTVRIIARIPLEDLSAGG [r13_380_TrROS_Hall]
folding stability dG unfold [1]: 3.24 ± 0.29 kcal/mol
folding stability dG unfold [2]: 3.09 ± 0.15 kcal/mol
folding stability dG unfold [3]: 3.12 ± 0.22 kcal/mol

SAGGKPLEPKIEVEVIPLPSGERVITLRVEVPPNDPLKIKFPGLKKEVEFPGDDEVEFRVVVPPDSFSAGGS [r16_56_TrMRF]
folding stability dG unfold [1]: 0.662 ± 0.1 kcal/mol
folding stability dG unfold [2]: 0.631 ± 0.1 kcal/mol
folding stability dG unfold [3]: 0.69 ± 0.14 kcal/mol

SAGGKPTQTITITLKDGRTLTIKVGQTVTITLDNGKTITVTVKDATITVKDGKVTITVNGKTYTFTVKSAGG [r13_643_TrROS_Hall]
folding stability dG unfold [1]: 3.45 ± 0.24 kcal/mol
folding stability dG unfold [2]: 4.73 ± 0.13 kcal/mol
folding stability dG unfold [3]: 4.62 ± 0.23 kcal/mol

SAGGKPVRIRSSNGWPIEINPEDGTIKVEFPGYEVEFEVKEDGTIQFQIRNPKDGKPIMPMTLQIEKSAGGS [r16_760_TrROS]
folding stability dG unfold [1]: 0.694 ± 0.049 kcal/mol
folding stability dG unfold [2]: 1.07 ± 0.093 kcal/mol
folding stability dG unfold [3]: 0.98 ± 0.072 kcal/mol

SAGGKSVKVSLPKEALKKAKENEKVVITLPDGTKREAILVRGGDSVPVFVVNPDNPEEAEYVGEATVGSAGG [r13_745_TrMRF]
folding stability dG unfold [1]: -0.503 ± 0.16 kcal/mol
folding stability dG unfold [2]: 0.134 ± 0.042 kcal/mol
folding stability dG unfold [3]: -0.0228 ± 0.09 kcal/mol

SAGGKTIEIEVKVPPGMTEEEVAKKLAEELAKELEKKTGKEIKIEIEKVEKLPNGERKVRIKIEVKPSAGGS [r8_156_TrROS_Hall]
folding stability dG unfold [1]: 1.42 ± 0.035 kcal/mol
folding stability dG unfold [2]: 1.8 ± 0.18 kcal/mol
folding stability dG unfold [3]: 1.74 ± 0.2 kcal/mol

SAGGKTIEVEIVVPPDMTPEEVAARLAAALPPGAKIRVEEVREVTGPDGRKYRIFKVTIYDEKTGEPLSAGG [r13_12_TrROS_Hall]
folding stability dG unfold [1]: 3.61 ± 0.14 kcal/mol
folding stability dG unfold [2]: 2.99 ± 0.072 kcal/mol
folding stability dG unfold [3]: 3.12 ± 0.16 kcal/mol

SAGGKTIMHMYMNPNGWFIRAKIKLDPDGKWKITDVEIYPMEMKYEDPNGKPREMPMFMIKIRIKPDSAGGS [r8_270_TrROS]
folding stability dG unfold [1]: 3.03 ± 0.084 kcal/mol
folding stability dG unfold [2]: 4.26 ± 0.046 kcal/mol
folding stability dG unfold [3]: 3.78 ± 0.092 kcal/mol

SAGGKTISIEFYMPPGEPPPSIEEIAKELFPGYKDIKIKNIEIEDVEPDPDNGMKYVRVSFTIEVEPPSAGG [r13_10_TrROS]
folding stability dG unfold [1]: 3.25 ± 0.27 kcal/mol
folding stability dG unfold [2]: 3.42 ± 0.23 kcal/mol
folding stability dG unfold [3]: 3.39 ± 0.25 kcal/mol

SAGGKTIVIELTPEEVEELLKKLLEELKKKAEENPDAKITIVITTPDGRTYTITIDLKTGKITIEELPSAGG [r13_216_TrROS_Hall]
folding stability dG unfold [1]: 2.39 ± 0.051 kcal/mol
folding stability dG unfold [2]: 3.93 ± 0.13 kcal/mol
folding stability dG unfold [3]: 3.43 ± 0.1 kcal/mol

SAGGKTIWIPMPPGDPEKFAKNIADEILEEAQKQGENVDVKITIQYPDGQYMRITIDGNGKIDKIVPWSAGG [r13_965_TrROS]
folding stability dG unfold [1]: 0.333 ± 0.2 kcal/mol
folding stability dG unfold [2]: 0.652 ± 0.31 kcal/mol
folding stability dG unfold [3]: 0.636 ± 0.31 kcal/mol

SAGGKTKVIVVKVKPEMTVEEIAKKLAEELKKKGKKVKVEVKVIEKLPNGELYVKVTVKDGKLTIEPSAGGS [r8_7_TrROS_Hall]
folding stability dG unfold [1]: 1.12 ± 0.085 kcal/mol
folding stability dG unfold [2]: 1.42 ± 0.073 kcal/mol
folding stability dG unfold [3]: 1.35 ± 0.19 kcal/mol

SAGGKTVPIMFPFDSPDQIEEIIEELAKPGFDDVKPERIEPEPPPDGNYYFPVRIEVDPKNGKIEITFSAGG [r13_174_TrROS]
folding stability dG unfold [1]: 0.0445 ± 0.13 kcal/mol
folding stability dG unfold [2]: 0.185 ± 0.19 kcal/mol
folding stability dG unfold [3]: -0.0243 ± 0.29 kcal/mol

SAGGKTVTIKAKSLEDALKAIEALPSVDKVTITVEVNGKTVTITLTVKPPPPVKYELDKNGKLVKKEKSAGG [r13_183_TrROS_Hall]
folding stability dG unfold [1]: 0.794 ± 0.05 kcal/mol
folding stability dG unfold [2]: 1.56 ± 0.086 kcal/mol
folding stability dG unfold [3]: 1.28 ± 0.25 kcal/mol

SAGGKTVVIEAESLEEALAAIEALPPDVKKVVIFNKETGVLVEVTVDPKTGEIKEIKVYKIDPEKGKLSAGG [r13_945_TrROS_Hall]
folding stability dG unfold [1]: 1.22 ± 0.09 kcal/mol
folding stability dG unfold [2]: 2.861 ± 0.026 kcal/mol
folding stability dG unfold [3]: 2.54 ± 0.12 kcal/mol

SAGGKTVVLEFDSVEDLKAALPPGAEVEIVVIREDGSKKTITVPAKDLKLELKPGEKYRVVIKVKPKKSAGG [r13_461_TrROS_Hall]
folding stability dG unfold [1]: 1.5 ± 0.09 kcal/mol
folding stability dG unfold [2]: 2.49 ± 0.084 kcal/mol
folding stability dG unfold [3]: 2.17 ± 0.12 kcal/mol

SAGGKTYKIKVTVEVKNENGETEKKEYVIEVKENKTPEEIAEELKKKLGVEKVEIVDPKTGKKYTIELSAGG [r13_663_TrROS_Hall]
folding stability dG unfold [1]: 1.9 ± 0.052 kcal/mol
folding stability dG unfold [2]: 3.185 ± 0.029 kcal/mol
folding stability dG unfold [3]: 2.83 ± 0.084 kcal/mol

SAGGKVSVEVRGNGPGSYVALWLPGPGTVIAREFEDGDRFDDLPEDAEPSRVVFFGYDGVPEEFELGSAGGS [r8_487_TrMRF]
folding stability dG unfold [1]: 0.32 ± 0.032 kcal/mol
folding stability dG unfold [2]: 0.487 ± 0.071 kcal/mol
folding stability dG unfold [3]: 0.449 ± 0.043 kcal/mol

SAGGKVVKTKEEAEKLVKEGKAEVVSVKKVKVPVNGKEKEVEVLEVKIKDKKTKKEKTIVLTKEQLKSAGGS [r16_271_TrROS_Hall]
folding stability dG unfold [1]: -0.319 ± 0.36 kcal/mol
folding stability dG unfold [2]: -0.863 ± 0.27 kcal/mol
folding stability dG unfold [3]: -0.894 ± 0.78 kcal/mol

SAGGKVVVLTFPKDNPEEVREALAKLPNVVRVEVEKVNDRYLAVAELEGELAVFVSLPDGRYVLLVLGSAGG [r13_907_TrMRF]
folding stability dG unfold [1]: 2.36 ± 0.091 kcal/mol
folding stability dG unfold [2]: 2.994 ± 0.021 kcal/mol
folding stability dG unfold [3]: 2.73 ± 0.043 kcal/mol

SAGGKWKPIGKFEFTLPDGVKVTVTVEENPPLELKITAEVEIYVPPPKPPVPPLGPEEVKKWLEENKSAGGS [r16_6_TrMRF]
folding stability dG unfold [1]: 1.87 ± 0.12 kcal/mol
folding stability dG unfold [2]: 1.86 ± 0.05 kcal/mol
folding stability dG unfold [3]: 1.8 ± 0.2 kcal/mol

SAGGKYTFTPAPPNSESEVVKKAEELKKKLAEEPGVDKKIEIEIKPSPDGSLTIKVTFSTGTYDAAASAGGS [r16_356_JUSTAS]
folding stability dG unfold [1]: 0.514 ± 0.027 kcal/mol
folding stability dG unfold [2]: 1.32 ± 0.094 kcal/mol
folding stability dG unfold [3]: 0.942 ± 0.12 kcal/mol

Source: the supplement of paper PMC12764529
